Laboratory results taken from the nanobody polyreactivity screen of Harvey et al. (2022).

assay: yeast display, Sf9 membrane polyspecificity reagent, FACS + sequencing; frameworks hold sequencing errors
Summary of the method: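 Sorting gates, low and high (top ~1%), were placed on anti-HA fluorescence to track expression and on streptavidin fluorescence to track reagent binding. A clone's polyreactivity label is taken from the gate it came out of. The reagent was 10% biotinylated, detergent-solubilized Sf9 membrane, applied for 1 hour at 4 °C to galactose-induced yeast display cells.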

Row | Sequence | polyreactivity (PSR sort gate)
1 | QVQLVESGGGLVQAGGSLRLSCAASGRIFDYYAMGWNRQAPGKERELVAAITWSGGNTYYADSVKGRFTISRDNAKNTVYLQMNSLKPEDTAVYYCAAEYYYLNDIYSEYDYWGQGTQVTVSS | high polyreactivity
2 | QVQLVESGGGLVQAGGSLRLSCAASGRIFDYYAMGWYRQAPGKERELVAAITSSTGSTYYADSVKGRFTISRDNAKNTVYLQMNSLKPEDTAVYYCAAERTYLDRGFDYWGQGTQVTVSS | low polyreactivity
3 | QVQLVESGGGLVQAGGSLRLSCAASGRIFEAYAMGWYRQAPGKERELVAAISGSGGSTYYADSVKGRFTISRDNAKNTVYLQMNSLKPEDTAVYYCAADDYYRVYWGQGTQVTVSS | high polyreactivity
4 | QVQLVESGGGLVQAGGSLRLSCAASGRIFEGYAMGWYRQAPGKERELVAAITGSGGGTYYADSVKGRFTISRDNAKNTVYLQMNSLKPEDTAVYYCATAYSAYQHPYGYWGKGTQVTVSS | low polyreactivity
5 | QVQLVESGGGLVQAGGSLRLSCAASGRIFEGYAMGWYRQAPGKERELVAAITGSGGGTYYADSVKGRFTISRDNAKNTVYLQMNSLKPEDTAVYYCATAYSAYQHPYGYWGQGTQVTVSS | low polyreactivity
6 | QVQLVESGGGLVQAGGSLRLSCAASGRIFEHNAMGWYRQAPGKEREFVAAISSSGGSTYYADSVKGRITISRDNAKNTVYLQMNSLKPVDTAVYYCNAGSTYYERNYWGQGTQVTVSS | low polyreactivity
7 | QVQLVESGGGLVQAGGSLRLSCAASGRIFEINTMGWYRQAPGKERELVAAISRGGGSTYYADSVKGRFTISRDNAKNTVYLQMNSLKPEDTAVYYCAAASYYVEGDYWGQGTQVTVSS | low polyreactivity
8 | QVQLVESGGGLVQAGGSLRLSCAASGRIFEIYAMGWYRQAPGTERELVAPISWRGVSTYYADSVKGRFTISRDNAKNTVYVQMNSLKAEDTAVYYCGPELGWGGFYKDGDASQFDYWGQGTQVTVSS | low polyreactivity
9 | QVQLVESGGGLVQAGGSLRLSCAASGRIFENNAMGWYRQAPGKERELVAAITSSGGRTYYADSVKGRFTISRDNAKNTVYLQMNSLIPEDTAVYYCNAYQYYERYDTYLFRYDYWGQGTQVTVSS | low polyreactivity
10 | QVQLVESGGGLVQAGGSLRLSCAASGRIFESYAMGWYRQAPGKERELVAAISRSGGSTYYADSVKGRFTISRDNAKNTVYLQMNSLKPEDTAVYYCNTYYYHHYDYWGQGTQVTVSS | high polyreactivity
11 | QVQLVESGGGLVQAGGSLRLSCAASGRIFEYYAMGWYRQAPGKERELVAAINTGGNTYYADSVKGRFTISRDNAKNTVYLLMNSLKPEDTAVYYCATYPIWYGGYLSGTDYDYWGQGTQVTVSS | low polyreactivity
12 | QVQLVESGGGLVQAGGSLRLSCAASGRIFEYYVMGWYRQAPGKERELVAAINRRGTSTYYADSVKGRFTISRDNAKNTVDLQMNSLKPEDTAVYYCAAVDRDYARTTTYDYCGQGTQVTVSS | high polyreactivity
13 | QVQLVESGGGLVQAGGSLRLSCAASGRIFFGNAMGWYRLAPGKEREFVAAITWRGGNTYYADSVKGRFTISRDNAKNTVYLQMNSLKPEDTAVYDCNASPSEVRRRYDYWGQGTQVTVSS | high polyreactivity
14 | QVQLVESGGGLVQAGGSLRLSCAASGRIFFGYAMGWYRPAPGKEREFVAAINWIGGRTYYAASVKGRFTISRDNAKNTVYLQMNSLKPEDTAVYYCAKEVSPYWTFDYWGQGTQVTVSS | low polyreactivity
15 | QVQLVESGGGLVQAGGSLRLSCAASGRIFFGYAMGWYRPAPGKERVLVAAISSRGGSTYYADSVKGRFTISRDNAKNTVYLKMNSLKPEDTAVYYCARKRYKRSTRTEFGYWGQGTQVTVSS | high polyreactivity
16 | QVQLVESGGGLVQAGGSLRLSCAASGRIFFGYAMGWYRQAPGKEREFVAAINWIGGRTYYADSVKGRFTISRDNAKNTVYLQMNSLKPEDTAVYYCAKEVSPYWTFDYWGQGSQVTVSS | low polyreactivity
